The values below come from publication PMC8413894.

The target in this experiment is BACE1-GFP (UniProt P56817). Put plainly: co-IP.
Chain of UniProt P56817 (P56817 46-501): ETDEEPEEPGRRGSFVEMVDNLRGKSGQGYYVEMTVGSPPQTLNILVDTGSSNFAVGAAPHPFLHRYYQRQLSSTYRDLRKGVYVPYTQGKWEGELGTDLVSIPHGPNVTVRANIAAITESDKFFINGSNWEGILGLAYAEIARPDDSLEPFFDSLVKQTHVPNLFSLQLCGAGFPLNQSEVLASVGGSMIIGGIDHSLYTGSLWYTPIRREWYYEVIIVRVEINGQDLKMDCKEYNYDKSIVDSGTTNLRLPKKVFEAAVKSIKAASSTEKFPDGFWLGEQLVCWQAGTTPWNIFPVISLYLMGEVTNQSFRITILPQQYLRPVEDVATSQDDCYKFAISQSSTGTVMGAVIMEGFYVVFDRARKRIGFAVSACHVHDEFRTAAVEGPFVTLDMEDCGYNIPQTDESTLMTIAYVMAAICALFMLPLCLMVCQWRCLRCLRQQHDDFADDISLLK

Regarding “Bin1-KR (siRNA-resistant neuronal Bin1-MYC with the LOAD mutation K358R, rs138047593) (from UniProt O08539-1 1-588) (natural protein)”, the percent reduction of co-immunoprecipitated Bin1 against Bin1-WT came to 65%.
